The nanobody polyreactivity screen of Harvey et al. (2022)

Test: yeast display, Sf9 membrane polyspecificity reagent, FACS + sequencing; frameworks hold sequencing errors
Method in brief: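 Using colony PCR, genes from sorted yeast display clones were amplified, then sequenced on MiSeq at 2 × 250 and filtered by CDR length. The clones had been stained with 10% biotinylated, detergent-solubilized Sf9 membrane reagent for 1 hour at 4 °C and sorted by FACS into low and high (top ~1%) gates on anti-HA and streptavidin fluorescence. Polyreactivity labels come from the gate of origin.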

Sequence | polyreactivity (PSR sort gate)
QVQLVESGGGLVQAGGSLRLSCAASGRTFAGNAMGWYRQAPGKERELVAAIRRTGGRTYYADSVKGRFTISRDNAKNTVYLQMNSLKPEDTAVYYCNAVNKPYTREYGYDYWGQGTQVTVSS | high polyreactivity
QVQLVESGGGLVQAGGSLRLSCAASGFTFYQYAMGWYRQAPGKERELVAAISSSGTSTYYADSVKGRFTISRDNAKNTVYLQMNSLKPEDTAVYYCAKDKSPYGYATNQYRKYYYWGQGTQVTVSS | low polyreactivity
QVQLVESGGGLVQAGGSLRLSCAASGLTFAANAMGWYRQAPGKERELVAAITSSGGSTYYADSVKGRFTISRDNAKNTVYLQMNSLKPEDTAVYYCAARASRPRFGYWGQGTLVTVSS | high polyreactivity
QVQLVESGGGLVQAGGSLRLSCAASVIICPDNAMGWDRPAPGKERELVAAITQSRGSTFYADSVKGRFTISRDNAKNTVYLQMKSLKPEDTAVYYCNAYRKFRYWGQGTQVTVSS | high polyreactivity
QVQLVESGGGLVQAGGSLRLSSAASGRTFGWNSMGWYRHAPGKERELVAAISRTGNTYYADSVKGRFTISRDNAKNTVYLQMNSLKPEDTAVYYCAKGRYYTPTYFRGVDLYDYWGQGTQVTVSS | low polyreactivity
QVQLVESGGGLVQAGGSLRLSCAASGRTFGTYAMGWYRQAPGKERELVAAISSGGSTYADSVKGRFTISRDNAKNTVYLQRNSLTPEETAVYYCNADFRARNYHYYPRRFKYYYWGQGTQVTVSS | high polyreactivity
QVQLVESGGGLVQAGGSLRVSCAASGSIFYTYVMGWYREAPGKERELVAAISGTGGRTYYADSVKGRFTISRDNAKNTVYLQMNSLKPEDTAVYYCAALYNRVNGHYYWGQGTQVTVSS | high polyreactivity
QVQLVESGGGLVQAGGSLRLSCAASGSTFISNAMGWYRQAPGKEREFVAAITSSGGSTYYADSVKGRFTISRDNAKNSVYLQMNSLKPEDSAVYYCARDVWSPDYLYDYWGQGTQVTVSS | low polyreactivity
QVQLVESGGGLDQAGGSLRLSCAAAGSIFDYYAMGSYRQAPGKERELVAAISWSGGSTYFADSVKGRFTISRDNAKNTVYLQMNSLKPEDTAVYYCAARGFWGQGTQVTVSS | low polyreactivity
QVQLVESGGGLVQAGGSLRLSCAASGRIFFTKAMGWYRQAPGKERELVAAISKSGARTYYADSVKGRFTISRDNAKNTVYLQMNSLKPEDTAVYYCAADVSVSGYYYWGQGTQVTVSS | high polyreactivity
QVQLVESGVGLVQAGGSLRLSCAASGFTFCPYDKGWYRQAPGKERELVAVIIGGDSTNYADSVKGRFTISRDNAKNTVYLLMNSLKPEDTAVYYCASDYIDRVGWMDYWGQGTQVTVSS | low polyreactivity
QDHLVESGGGLVQAGGSLRLSCAASGSIFYRYAMGWYRQAPWKERELVAAISRSGGTTYYADSVKGRFTISRDNAKNTVYLQMNSLKPEDTAVYYCAARVFHPYSTDPYYYWGQGTQVTVSS | high polyreactivity
QVQLVESGGGLVQAGGSFRLSCAASGSIFVVYDMGCYRQAPGKERELVAAITSGGSTYYADSVKGRFTISRDNAKNTVYLQMNSLKPEDTAVYYCAADSYEGYDYWGQGTQVTVSS | low polyreactivity
QVQLVESGGGLVQAGGSLRLSCAASGSIFIPYAMGWYRQAPGKERELVAAISRRGGSTYYADSVKGRFTISRDNAKNTVYLQMNSLKPEDTAVYYCNKDVNAYGYFEYYYWGQGTQVTVSS | low polyreactivity
QVQLVESGGALVQAGGSLRLSCAASGRIFGVYAMGWYRQAPGKERELVAAITRGASTYYADSVKGRFTISRDNSKNTVYLQMNSLKPEDTAVYYCAVSQYRGIYRKYDYWGHGTQVTVSS | high polyreactivity
QVQLVESGGGLVQAGGSLRLSCAASGSIFYQNAMGWYRHAPGKERELVAAITSDGSTYYADSVKGRFTISRDNAKKTVYLQMNSLKPEDTAVYYCAAEDYGHRYDYWGQGTQVTVSS | low polyreactivity

Sequence | polyreactivity (PSR sort gate)
QVQLVESGGGLVQAGGSLRLSCAASGSIIPPNAMGWYRQAPGKERELVAGISSGGSTTYADSVKGRFTISRDNAKNTVYLQMNSLKPEDTAVYYCAADVPYGASIISYDYWGQGTQVTVSS | low polyreactivity
QVQLVESGGGLVQAGGSLRLSCAASGFIFYANAMGWYRQAPGKERELVAAITWSGSRTYYADSVKGRFTISRDNAKNTVYLQMNSLKPEDTAVYYCNKDWYVGSFGYPEDYWGQGTQVSVSS | low polyreactivity
QVQLVESGGGLVQAGGSLRLSCAASGSIFGKYAMGWYRQAPGKERELVAAISERTGRTYYADSVKGRFTISRDNAKNTVYLQMNSLKPEDTAVYYCNVGPLYSGWSTYGYDYWGQGTQVTVSS | high polyreactivity
QVQLVESGGGLVQAGGSLRLSCAASGSTFEYYAMGWYRQAPGKERELVAGISTGGSTNYADSVKGRFTISRDNAKNTVYVQMNSLKTEDSAVYYCKRDWALYVFCRHYHAYYSWGQRTQVTVSS | low polyreactivity
QVQLEESGGGLVQAGGSLRLSCSASGRIFSRNAMGWYRQAPGKERELVAAIRPRGGTTYYADSVKGRFTISRDNAKNTVYLQINSLKPYDTAVYYCATGGGRNSTDRRRLHYTYYYWGQGTQVTVSS | low polyreactivity
QVQLVESCGGLVQEGGSLRLSSAASGSIRYYALGWYRQAPGKESELVAAISSRGTNTYYADSVKGSITISRDNAKNTVYLQMKSQKPEDTAVYYCNAVVGLGYNYWGQGTQVSVSS | high polyreactivity
QVQLVESGGGLVQAGGSLRLSCAASGRIDAYYAMGWYRQAPGKERELVAGISQRGSRTYYADSVKGRFTISRDNAKNTVYLQMNSLKPEDTAVYYCAARDRRSVTMDYWGQGTQVTVSS | high polyreactivity
QVQLVESGGGLVQAGGSLRLSCAASVISFARNVMGWYRQATGKERELVAGISRRGGSTYYADSVKGRFTISRDNAKNTVYLQMNSLKPEDTAVYYCAAEYIRNGDYGLDYWGQGTQVTVSS | high polyreactivity
QVQLVESGGGLVQAGGSLRLSCAASGSILVSYAMGWYRQAPGKERELVAAITRSGVRTYYADSVKGRFTISRDNAKNSVYLQMNSLKPEDTAVYYCAADTYRSSSPYGYWGQGTQVTVSS | high polyreactivity
QVQLVESGGGLVQAGGSLRLSCAASGYIFRYNEMGWYRQAPGKERALVAAIRATGGSTYYADSVKGRFTISRDNAKNTVYLQMNSLKPEDTAVYYCNAGGQGRTYRYYYWGQGTQVTVSS | high polyreactivity
QVQLVESGGGLVQAGGSLRLSCAASGFTFRWYAMGWYRQAPGKERELVAAITSRGGTTYYADSVKGRFTISRDNAKNTVYLQMNSLKPEDTAVYYCAALNSGYIGMDYWGQGTQVTVSS | high polyreactivity
QVQLVESRGGLVQAGASLRLSCAASALIFGYYAMGCYRQAPVKEREFVAAIDGSDGTTYYADSVKGRFTIARDNAKNTVYLQMNSLKPEDTAVYYCNADSSSYSSDLGYDYWGQGTQVTVSS | low polyreactivity
QVQLVESGGGLVQAGGSLRLSCAASGSTVVYYAMGWYRQAPGKERELVAAITSGGSTNYADSVKGRFTISRDNAKITVYLQMNSLKPEDTAVYYCNAEPETTIDYWGQGTQVTVSS | low polyreactivity
QVQLVESGGGLVQAGGTLRLSCAASGSIFRLNAMGWYRQPPGKERELVAAITSGGRTNYADSVKGRFTISRDNAKNTDYLQMNSLKPEDTAVYYCNARATAYGWRGDAGFEFDYWGQGTQVTVSS | low polyreactivity
QVQLVESGGGLVQAGGSLRLSCAASGRIFFTNAMGWYRQAPGKEREFVAGISFSGDGRTYYADSVKGRFTISRDNAKNTVYLQMNSLKPEDTAVYYCAAPHRSRTHELDYWGQGTQVTVSS | low polyreactivity
QVQLVESGGGLVQAGGSLRLSCAASGSIFSAYVMGWYRQAPGKERELVAAINRGGNTYYADSVKGRFTISRDNAKNTVYLQMNSLKPEDTAVYYCNAQWYYLRYRYDYWGQGTQVTVSS | high polyreactivity
